In US12104181B2, “Compositions and methods for treating viral infections targeting TRIM7” (THE BOARD OF REGENTS OF THE UNIVERSITY OF TEXAS SYSTEM, priority 2021, dated 2024):

B1: RNF139: human RING type E3 ligase expressed from lentiviral vector (protein, UniProt Q8WU17 2-664, looked up)
E3 ubiquitin-protein ligase …: AAVGPPQQQVRMAHQQVWAALEVALRVPCLYIIDAIFNSYPDSSQSRFCIVLQIFLRLFGVFASSIVLILSQRSLFKFYTYSSAFLLAATSVLVNYYASLHIDFYGAYNTSAFGIELLPRKGPSLWMALIVLQLTFGIGYVTLLQIHSIYSQLIILDLLVPVIGLITELPLHIRETLLFTSSLILTLNTVFVLAVKLKWFYYSTRYVYLLVRHMYRIYGLQLLMEDTWKRIRFPDILRVFWLTRVTAQATVLMYILRMANETDSFFISWDDFWDLICNLIISGCDSTLTVLGMSAVISSVAHYLGLGILAFIGSTEEDDRRLGFVAPVLFFILALQTGLSGLRPEERLIRLSRNMCLLLTAVLHFIHGMTDPVLMSLSASHVSSFRRHFPVLFVSACLFILPVLLSYVLWHHYALNTWLFAVTAFCVELCLKVIVSLTVYTLFMIDGYYNVLWEKLDDYVYYVRSTGSIIEFIFGVVMFGNGAYTMMFESGSKIRAFMMCLHAYFNIYLQAKNGWKTFMNRRTAVKKINSLPEIKGSRLQEINDVCAICYHEFTTSARITPCNHYFHALCLRKWLYIQDTCPMCHQKVYIEDDIKDNSNVSNNNGFIPPNETPEEAVREAAAESDRELNEDDSTDCDDDVQRERNGVIQHTGAAAEEFNDDTD
B2: RNF113B: human RING type E3 ligase expressed from lentiviral vector (protein, UniProt Q8IZP6 1-322, looked up)
RING finger protein 113B: MAAPPSPGRTADQADQVCTFLFKKPGRKGAAGLRKRPACDPEHGESSSSGDEGDTVAQPPRVAPRPRGLHSWQKAAHGDRRGEEAAPESLDVVYRSTRSAKPVGPEDMGATADFEQDTEKEHHTPTILKCSQRVQEALRGREHDHIYRGIHSYLRYLKPKDTSMGNSSSGMARKGPIRAPGHLRATVRWDYQPDICKDYKETGFCGFGDSCKFLHDRSDYKLGWEIERELEEGRYCICEDENHEVGSEEEEIPFRCFICRQAFQNPVVTKCRHYFCESCALEHFRATPRCYICDQPTGGIFNPAKELMAKLQKLQAAEGKKR
modifications: lentiviral expression
notes: human RING type E3 ligase expressed from lentiviral vector
B3: RNF148: human RING type E3 ligase expressed from lentiviral vector (protein, UniProt Q8N7C7 35-305, looked up)
RING finger protein 148: KAIWTAHLNITFQVGNEITSELGESGVFGNHSPLERVSGVVALPEGWNQNACHPLTNFSRPKQADSWLALIERGGCTFTHKINVAAEKGANGVIIYNYQGTGSKVFPMSHQGTENIVAVMISNLKGMEILHSIQKGVYVTVIIEVGRMHMQWVSHYIMYLFTFLAATIAYFYLDCVWRLTPRVPNSFTRRRSQIKTDVKKAIDQLQLRVLKEGDEELDLNEDNCVVCFDTYKPQDVVRILTCKHFFHKACIDPWLLAHRTCPMCKCDILKT
B4: RNF2: human RING type E3 ligase expressed from lentiviral vector (protein, UniProt Q99496 2-336, looked up)
E3 ubiquitin-protein ligase …: SQAVQTNGTQPLSKTWELSLYELQRTPQEAITDGLEIVVSPRSLHSELMCPICLDMLKNTMTTKECLHRFCADCIITALRSGNKECPTCRKKLVSKRSLRPDPNFDALISKIYPSRDEYEAHQERVLARINKHNNQQALSHSIEEGLKIQAMNRLQRGKKQQIENGSGAEDNGDSSHCSNASTHSNQEAGPSNKRTKTSDDSGLELDNNNAAMAIDPVMDGASEIELVFRPHPTLMEKDDSAQTRYIKTSGNATVDHLSKYLAVRLALEELRSKGESNQMNLDTASEKQYTIYIATASGQFTVLNGSFSLELVSEKYWKVNKPMELYYAPTKEHK
B5: RNF11: human RING type E3 ligase expressed from lentiviral vector (protein, UniProt Q9Y3C5 2-154, looked up)
RING finger protein 11: GNCLKSPTSDDISLLHESQSDRASFGEGTEPDQEPPPPYQEQVPVPVYHPTPSQTRLATQLTEEEQIRIAQRIGLIQHLPKGVYDPGRDGSEKKIRECVICMMDFVYGDPIRFLPCMHIYHLDCIDDWLMRSFTCPSCMEPVDAALLSSYETN
B6: RNF10: human RING type E3 ligase expressed from lentiviral vector (protein, UniProt Q8N5U6 1-811, looked up)
E3 ubiquitin-protein ligase …: MPLSSPNAAATASDMDKNSGSNSSSASSGSSKGQQPPRSASAGPAGESKPKSDGKNSSGSKRYNRKRELSYPKNESFNNQSRRSSSQKSKTFNKMPPQRGGGSSKLFSSSFNGGRRDEVAEAQRAEFSPAQFSGPKKINLNHLLNFTFEPRGQTGHFEGSGHGSWGKRNKWGHKPFNKELFLQANCQFVVSEDQDYTAHFADPDTLVNWDFVEQVRICSHEVPSCPICLYPPTAAKITRCGHIFCWACILHYLSLSEKTWSKCPICYSSVHKKDLKSVVATESHQYVVGDTITMQLMKREKGVLVALPKSKWMNVDHPIHLGDEQHSQYSKLLLASKEQVLHRVVLEEKVALEQQLAEEKHTPESCFIEAAIQELKTREEALSGLAGSRREVTGVVAALEQLVLMAPLAKESVFQPRKGVLEYLSAFDEETTEVCSLDTPSRPLALPLVEEEEAVSEPEPEGLPEACDDLELADDNLKEGTICTESSQQEPITKSGFTRLSSSPCYYFYQAEDGQHMFLHPVNVRCLVREYGSLERSPEKISATVVEIAGYSMSEDVRQRHRYLSHLPLTCEFSICELALQPPVVSKETLEMFSDDIEKRKRQRQKKAREERRRERRIEIEENKKQGKYPEVHIPLENLQQFPAFNSYTCSSDSALGPTSTEGHGALSISPLSRSPGSHADFLLTPLSPTASQGSPSFCVGSLEEDSPFPSFAQMLRVGKAKADVWPKTAPKKDENSLVPPAPVDSDGESDNSDRVPVPSFQNSFSQAIEAAFMKLDTPATSDPLSEEKGGKKRKKQKQKLLFSTSVVHTK
modifications: lentiviral expression
notes: as for B2
B7: RNFT2: human RING type E3 ligase expressed from lentiviral vector (protein, UniProt Q96EX2 1-444, looked up)
E3 ubiquitin-protein ligase …: MWLFTVNQVLRKMQRRHSSNTDNIPPERNRSQALSSEASVDEGGVFESLKAEAASPPALFSGLSGSLPTSSFPSSLVLGSSAGGGDVFIQMPASREEGGGRGEGGAYHHRQPHHHFHHGGHRGGSLLQHVGGDHRGHSEEGGDEQPGTPAPALSELKAVICWLQKGLPFILILLAKLCFQHKLGIAVCIGMASTFAYANSTLREQVSLKEKRSVLVILWILAFLAGNTLYVLYTFSSQQLYNSLIFLKPNLEMLDFFDLLWIVGIADFVLKYITIALKCLIVALPKIILAVKSKGKFYLVIEELSQLFRSLVPIQLWYKYIMGDDSSNSYFLGGVLIVLYSLCKSFDICGRVGGVRKALKLLCTSQNYGVRATGQQCTEAGDICAICQAEFREPLILLCQHVFCEECLCLWLDRERTCPLCRSVAVDTLRCWKDGATSAHFQVY
B8: RNF146: human RING type E3 ligase expressed from lentiviral vector (protein, UniProt Q9NTX7 1-359, looked up)
E3 ubiquitin-protein ligase …: MMAGCGEIDHSINMLPTNRKANESCSNTAPSLTVPECAICLQTCVHPVSLPCKHVFCYLCVKGASWLGKRCALCRQEIPEDFLDKPTLLSPEELKAASRGNGEYAWYYEGRNGWWQYDERTSRELEDAFSKGKKNTEMLIAGFLYVADLENMVQYRRNEHGRRRKIKRDIIDIPKKGVAGLRLDCDANTVNLARESSADGADSVSAQSGASVQPLVSSVRPLTSVDGQLTSPATPSPDASTSLEDSFAHLQLSGDNTAERSHRGEGEEDHESPSSGRVPAPDTSIEETESDASSDSEDVSAVVAQHSLTQQRLLVSNANQTVPDRSDRSGTDRSVAGGGTVSVSVRSRRPDGQCTVTEV
B9: RNF111: human RING type E3 ligase expressed from lentiviral vector (protein, UniProt Q6ZNA4 1-994, looked up)
E3 ubiquitin-protein ligase …: MSQWTPEYNELYTLKVDMKSEIPSDAPKTQESLKGILLHPEPIGAAKSFPAGVEMINSKVGNEFSHLCDDSQKQEKEMNGNQQEQEKSLVVRKKRKSQQAGPSYVQNCVKENQGILGLRQHLGTPSDEDNDSSFSDCLSSPSSSLHFGDSDTVTSDEDKEVSVRHSQTILNAKSRSHSARSHKWPRTETESVSGLLMKRPCLHGSSLRRLPCRKRFVKNNSSQRTQKQKERILMQRKKREVLARRKYALLPSSSSSSENDLSSESSSSSSTEGEEDLFVSASENHQNNPAVPSGSIDEDVVVIEASSTPQVTANEEINVTSTDSEVEIVTVGESYRSRSTLGHSRSHWSQGSSSHASRPQEPRNRSRISTVIQPLRQNAAEVVDLTVDEDEPTVVPTTSARMESQATSASINNSNPSTSEQASDTASAVTSSQPSTVSETSATLTSNSTTGTSIGDDSRRTTSSAVTETGPPAMPRLPSCCPQHSPCGGSSQNHHALGHPHTSCFQQHGHHFQHHHHHHHTPHPAVPVSPSFSDPACPVERPPQVQAPCGANSSSGTSYHEQQALPVDLSNSGIRSHGSGSFHGASAFDPCCPVSSSRAAIFGHQAAAAAPSQPLSSIDGYGSSMVAQPQPQPPPQPSLSSCRHYMPPPYASLTRPLHHQASACPHSHGNPPPQTQPPPQVDYVIPHPVHAFHSQISSHATSHPVAPPPPTHLASTAAPIPQHLPPTHQPISHHIPATAPPAQRLHPHEVMQRMEVQRRRMMQHPTRAHERPPPHPHRMHPNYGHGHHIHVPQTMSSHPRQAPERSAWELGIEAGVTAATYTPGALHPHLAHYHAPPRLHHLQLGALPLMVPDMAGYPHIRYISSGLDGTSFRGPFRGNFEELIHLEERLGNVNRGASQGTIERCTYPHKYKKVTTDWFSQRKLHCKQDGEEGTEEDTEEKCTICLSILEEGEDVRRLPCMHLFHQVCVDQWLITNKKCPICRVDIEAQLPSES
B10: RNF133: human RING type E3 ligase expressed from lentiviral vector (protein, UniProt Q8WVZ7 1-376, looked up)
E3 ubiquitin-protein ligase …: MHLLKVGTWRNNTASSWLMKFSVLWLVSQNCCRASVVWMAYMNISFHVGNHVLSELGETGVFGRSSTLKRVAGVIVPPEGKIQNACNPNTIFSRSKYSETWLALIERGGCTFTQKIKVATEKGASGVIIYNVPGTGNQVFPMFHQAFEDVVVVMIGNLKGTEIFHLIKKGVLITAVVEVGRKHIIWMNHYLVSFVIVTTATLAYFIFYHIHRLCLARIQNRRWQRLTTDLQNTFGQLQLRVVKEGDEEINPNGDSCVICFERYKPNDIVRILTCKHFFHKNCIDPWILPHGTCPICKCDILKVLGIQVVVENGTEPLQVLMSNELPETLSPSEEETNNEVSPAGTSDKVIHVEENPTSQNNDIQPHSVVEDVHPSP
modifications: lentiviral expression
notes: as for B2

Each molecule was assayed on coxsackievirus B3 (CVB3-GFP). Settings: HeLa cells, GFP-positive cells within RFP-positive gate, replicate R1.
Assay type: cell-based

Row | Molecule | Percent Infected R1 [%]
1 | B1 | 77.5
2 | B2 | 88
3 | B3 | 82.3
4 | B4 | 87.4
5 | B5 | 90.7
6 | B6 | 88.9
7 | B7 | 86.5
8 | B8 | 89.7
9 | B9 | 84.2
10 | B10 | 94.9

Same assay, conditions: HeLa cells, replicate R1

Row | Molecule | Z score R1
11 | B1 | −0.14
12 | B2 | −0.01
13 | B3 | −0.08
14 | B4 | −0.02
15 | B5 | 0.03
16 | B6 | 0
17 | B7 | −0.03
18 | B8 | 0.01
19 | B9 | −0.06
20 | B10 | 0.08
